# Test results as given in patent US6497872B1, “Neural transplantation using proliferated multipotent neural stem cells and their progeny” (NeuroSpheres Holdings Ltd., priority 1991, dated 2002).
# B1: BDNF: brain-derived neurotrophic factor (protein, UniProt P23560 19-247, looked up)
# Neurotrophic factor BDNF …: APMKEANIRGQGGLAYPGVRTHGTLESVNGPKAGSRGLTSLADTFEHVIEELLDEDQKVRPNEENNKDADLYTSRVMLSSQVPLEPPLLFLLEEYKNYLDAANMSMRVRRHSDPARRGELSVCDSISEWVTAADKKTAVDMSGGTVTVLEKVPVSKGQLKQYFYETKCNPMGYTKEGCRGIDKRHWNSQCRTTQSYVRALTMDSKKRIGWRFIRIDTSCVCTLTIKRGR
# Key:
# [1] = system: EGF-generated precursor cells; assay: Screening of BDNF on differentiation and survival of stem cell progeny (Example 37); format: cell-based, mouse
# Protocol: Precursor cells were propagated as described in Example 4 and differentiated using Paradigm 3 described in Example 7. At the time of plating the EGF-generated cells, BDNF was added at a concentration of 10 ng/ml. At 3, 7, 14, and 21 days in vitro (DIV), cells were processed for indirect immunocytochemistry. BrdU labeling was used to monitor proliferation of the precursor cells. The effects of BDNF on neurons, oligodendrocytes and astrocytes were assayed by probing the cultures with antibodies that recognize antigens found on neurons (MAP-2, NSE, NF), oligodendrocytes (O4, GalC, MBP) or astrocytes (GFAP). Cell survival was determined by counting the number of immunoreactive cells at each time point and morphological observations were made.
# Cells treated with BDNF according to the methods described in Part A were probed with antibodies that recognize neural transmitters or enzymes involved in the synthesis of neural transmitters. These included TH, ChAT, substance P, GABA, somatostatin, and glutamate. In both control and BDNF-treated culture conditions, neurons tested positive for the presence of substance P and GABA.
# Cells that are responsive to growth factor treatment were identified by differentiating the EGF-generated progeny as described in Example 7, paradigm 3 and at 1 DIV adding approximately 100 ng/ml of BDNF. At 1, 3, 6, 12 and 24 hours after the addition of BDNF the cells were fixed and processed for dual label immunocytochemistry. Antibodies that recognize neurons (MAP-2, NSE, NF), oligodendrocytes (O4, GalC, MBP) or astrocytes (GFAP) were used in combination with an antibody that recognizes c-fos and/or other immediate early genes.
# [2] = system: EGF-generated neurospheres; assay: Effect of growth factors on neurosphere differentiation, immunocytochemistry (Example 8); format: cell-based, mouse; conditions: paradigm 3; BDNF
# Protocol: Six to 8 days after the first passage, the neurospheres were removed and centrifuged at 400 r.p.m. The EGF-containing supernatant was removed and the pellet suspended in EGF-free complete medium containing 1% FBS. Neurospheres (approximately 0.5-1.0×10^6 cells/well) were plated on poly-L-ornithine-coated (15 μg/ml) glass coverslips in 24 well Nuclon (1.0 ml/well) culture dishes. After 24 hours in culture, the coverslips were transferred to 12 well (Costar) culture dishes containing complete medium containing 0.5% FBS. The medium was changed every 4-7 days. This differentiation procedure is referred to as the “Rapid Differentiation Paradigm” or RDP.
# Six to 8 days after the first passage, the neurospheres were removed and centrifuged at 400 r.p.m. The EGF-containing media was removed and the pellet was suspended in EGF-free complete medium containing 1% FBS. The neurospheres were mechanically dissociated into single cells with a fire-polished Pasteur pipette and centrifuged at 800 r.p.m. for 5 minutes. Between 0.5×10^6 and 1.0×10^6 cells were plated on poly-L-ornithine-coated (15 μg/ml) glass coverslips in 24 well Nuclon (1.0 ml/well) culture dishes. The EGF-free culture medium containing 1% FBS was changed every 4-7 days.
# Neurospheres were washed free of EGF by serial transfers through changes of EGF-free medium. A single neurosphere was plated onto poly-L-ornithine-coated (15 μg/ml) glass coverslips in a 24-well plate. The culture medium used was complete medium with or without I % FBS. The medium was changed every 4-7 days.
# Neurospheres were washed free of EGF by serial transfers through changes of EGF-free medium. A single neurosphere was mechanically dissociated in a 0.5 ml Eppendorf centrifuge tube and all the cells were plated onto a 35 mm culture dish. Complete medium was used with or without 1% FBS.
# The effects of CNTF, FGF-2, BDNF, and retinoic acid on neurosphere differentiation were tested using the differentiation paradigms set forth in Example 7.
# The effect of CNTF was assayed in paradigms 1 and 3. For both paradigms, CNTF was added either at the beginning of the experiment at a concentration of 10 ng/ml or daily at a concentration of 1 ng/ml.
# Three different antibodies directed against 04, galactocerebroside (GalC) and MBP were used to study the effect of CNTF on the oligodendrocytes of paradigm 1. CNTF had no effect on the number of 04(+) cells, but there was an increase in the number of GalC(+) and MBP(+) cells compared with the control. Thus it appears that CNTF plays a role in the maturation of oligodendrocytes.
# The effect of FGF-2 was tested using paradigms 2 and 4. In paradigm 2, 20 ng/ml of FGF-2 was added at the beginning of the experiment and cells were stained 7 days later. FGF-2 increased the number of GFAP(+) cells and the number of NSE(+) cells.
# In paradigm 4, 20 ng/ml of FGF-2 was added at the beginning of the experiment and assayed 7-10 days later. […] It induced two different cell types to divide, neuroblasts and bipotential progenitor cells. The neuroblast produced, on average, 6 neurons while the bipotential cell produced approximately 6 neurons and a number of astrocytes.
# [3] = system: EGF-generated mouse neurospheres; assay: BDNF on single EGF-generated neurospheres (Example 12); format: cell-based; conditions: 10 ng/ml; 14-28 days in vitro; preliminary experiments
# Protocol: The expression of the trk family of neurotrophin receptors in EGF-generated neurospheres was examined by northern blot analysis. Total mRNA was isolated from mouse and rat striatal EGF-generated neurospheres. […] In preliminary experiments, single EGF-generated mouse neurospheres were plated on poly-L-ornithine coated glass coverslips and cultured in the absence or presence of 10 ng/ml of BDNF. […] Activation of the trkB receptor on EGF-generated neurospheres may enhance differentiation, survival of and/or neurite outgrowth from newly generated neurons.
molecule,measurement,setting,value
B1,neurite extension and branching,[1]; 10 ng/ml,dramatic increase
same,Astrocyte and oligodendrocyte numbers versus control,"[1]; 10 ng/ml, paradigm 3",not significantly altered
same,differentiation and survival of neurons versus control,"[1]; 10 ng/ml, paradigm 3, 3-21 DIV",significantly increased
same,expression of c-fos,"[1]; approximately 100 ng/ml at 1 DIV, 1-24 hours",selective increase in the expression of c-fos in neuronal cells
same,neuronal branching and migration of the neurons away from the sphere,[2],increase
same,number of NSE(+) neurons per neurosphere,[2],increase
same,morphology of NSE(+) cells,[3],NSE(+) cells with extensive and highly branched processes
